Ends that are not written are not given here.

Results on eleven molecules are retold here after patent US20040156824A1.

The target in assay [1] is nucleohistones expressed in the nucleus of mammalian cells. The assay can be described thus: radioimmunoassay on paraformaldehyde-acetone-treated cells.
Assay [2] deals with variant of the HLA-Dr antigen expressed on the cell surface of human B-lymphocytes and malignant lymphomas (human). Briefly: indirect cell binding assay.
Assay [3] shares this target. The assay can be described thus: live cell binding assay.
The target of assay [4] is nucleohistones expressed in the nucleus of mammalian cells. Briefly: cell binding assay (printed as live cell binding assay).
The target in assay [5] is variant of the HLA-Dr antigen expressed on the cell surface of human B-lymphocytes and malignant lymphomas (human). Briefly: live cell radioimmunoassay on Raji cells.

Consider “125I-labeled TNT-1 F(ab')2 fragment (antibody)”, for which, in assay [1], the immunoreactivity was greater than 80%. In assay [2], “Lym-1/3B immunoconjugate (from UniProt P60568 53-78)” displayed a percent of the antibody binding reactivity retained against unconjugated antibody greater than 75%. The molecule “Lym-1/4A immunoconjugate (from UniProt P60568 125-153)” displayed a percent of the antibody binding reactivity retained against unconjugated antibody in assay [2] greater than 75%.

“Lym-1/4B immunoconjugate (from UniProt P60568 107-153)” gave a percent of the antibody binding reactivity retained against unconjugated antibody in assay [2] greater than 75%. In turn, “Lym-1/A3 immunoconjugate (from UniProt P60568 57-92)” displayed a percent of the antibody binding reactivity retained against unconjugated antibody in assay [2] greater than 75%. As for “Lym-1/IL-2 immunoconjugate (from UniProt P60568 21-153)”, the percent of the antibody binding reactivity retained against unconjugated antibody in assay [3] was greater than 75%. “TNT-1/IL-2 immunoconjugate (from UniProt P60568 21-153)”: the percent of the antibody binding reactivity retained against unconjugated antibody in assay [4] was greater than 75%.

B1: Lym-1/E6 immunoconjugate (peptide, UniProt P60568 42-58, looked up, part only)
chain: QMILNGINNYKNPKLTR
modifications: also: conjugated to murine antibody Lym-1
In the case of B1, in assay [2], the percent of the antibody binding reactivity retained against unconjugated antibody was greater than 75%.

B2: Lym-1/B1 immunoconjugate (peptide, UniProt P60568 57-78, looked up, part only)
chain: TRMLTFKFYMPKKATELKHLQC
modifications: also: conjugated to murine antibody Lym-1
In turn, B2 registered a percent of the antibody binding reactivity retained against unconjugated antibody in assay [2] greater than 75%.

B3: Lym-1/3A immunoconjugate (peptide, UniProt P60568 64-78, looked up, part only)
chain: FYMPKKATELKHLQC
modifications: also: conjugated to murine antibody Lym-1
B3 had a percent of the antibody binding reactivity retained against unconjugated antibody in assay [2] greater than 75%.

B4: 125I-labeled Lym-1 F(ab')2 fragment (antibody, from another filing, mouse IgG2a, V domains shown)
VH: QLKESGPGLVAPSQSLSITCTISGFSLTSYGVHWVRQPPGKGLEWLVVIWSDGSTTYNSALKSRLSISKDNSKSQVFLKMNSLQTDDTAIYYCASHYGSTLAFASWGHGTLVTVSA
VL: DIQMTQSPASLSASVGETVTIICRASVNIYSYLAWYQQKQGKSPQLLVYNAKILAEGVPSRFSGSGSGTQFSLKINSLQPEDFGSYYCQHHYGTFTFGSGTKLEIK
With B4, the percent of radiolabeled preparation bound to cells (immunoreactivity) in assay [5] stood at 80%.
